Measured values: US10464978B2, “Peptides and combination of peptides for use in immunotherapy against ovarian cancer and other cancers” (immatics biotechnologies GmbH, priority 2015, dated 2019)

Test system: CD8+ T cells
Assay: In vitro T-cell priming with aAPCs loaded with peptide/MHC and anti-CD28, pMHC multimer readout (in vitro immunogenicity)
Type: cell-based, human
Conditions: HLA-A*02, healthy donors
Procedure: In an aspect, the peptides are pre-screened for immunogenicity before being included in the warehouse. By way of example, and not limitation, the immunogenicity of the peptides included in the warehouse is determined by a method comprising in vitro T-cell priming through repeated stimulations of CD8+ T cells from healthy donors with artificial antigen presenting cells loaded with peptide/MHC complexes and anti-CD28 antibody.
In order to obtain information regarding the immunogenicity of the TUMAPs of the present invention, the inventors performed investigations using an in vitro T-cell priming assay based on repeated stimulations of CD8+ T cells with artificial antigen presenting cells (aAPCs) loaded with peptide/MHC complexes and anti-CD28 antibody.
In order to perform in vitro stimulations by artificial antigen presenting cells loaded with peptide-MHC complex (pMHC) and anti-CD28 antibody, the inventors first isolated CD8+ T cells from fresh HLA-A*02 leukapheresis products via positive selection using CD8 microbeads (Miltenyi Biotec, Bergisch-Gladbach, Germany) of healthy donors obtained from the University clinics Mannheim, Germany, after informed consent.
PBMCs and isolated CD8+ lymphocytes were incubated in T-cell medium (TCM) until use consisting of RPMI-Glutamax (Invitrogen, Karlsruhe, Germany) supplemented with 10% heat inactivated human AB serum (PAN-Biotech, Aidenbach, Germany), 100 U/ml Penicillin/100 μg/ml Streptomycin (Cambrex, Cologne, Germany), 1 mM sodium pyruvate (CC Pro, Oberdorla, Germany), 20 μg/ml Gentamycin (Cambrex). 2.5 ng/ml IL-7 (PromoCell, Heidelberg, Germany) and 10 U/ml IL-2 (Novartis Pharma, Nürnberg, Germany) were also added to the TCM at this step.
Generation of pMHC/anti-CD28 coated beads, T-cell stimulations and readout was performed in a highly defined in vitro system using four different pMHC molecules per stimulation condition and 8 different pMHC molecules per readout condition.
The purified co-stimulatory mouse IgG2a anti human CD28 Ab 9.3 (Jung et al., 1987) was chemically biotinylated using Sulfo-N-hydroxysuccinimidobiotin as recommended by the manufacturer (Perbio, Bonn, Germany). Beads used were 5.6 μm diameter streptavidin coated polystyrene particles (Bangs Laboratories, Illinois, USA).
pMHC used for positive and negative control stimulations were A*0201/MLA-001 (peptide […] (SEQ ID NO. 664) from modified Melan-A/MART-1) and A*0201/DDX5-001 ([…] from DDX5, SEQ ID NO. 665), respectively.
800.000 beads/200 μl were coated in 96-well plates in the presence of 4×12.5 ng different biotin-pMHC, washed and 600 ng biotin anti-CD28 were added subsequently in a volume of 200 μl. Stimulations were initiated in 96-well plates by co-incubating […] CD8+ T cells with 2×10^5 washed coated beads in 200 μl TCM supplemented with 5 ng/ml IL-12 (PromoCell) for 3 days at 37° C. Half of the medium was then exchanged by fresh TCM supplemented with 80 U/ml IL-2 and incubating was continued for 4 days at 37° C. This stimulation cycle was performed for a total of three times. For the pMHC multimer readout using 8 different pMHC molecules per condition, a two-dimensional combinatorial coding approach was used as previously described (Andersen et al., 2012) with minor modifications encompassing coupling to 5 different fluorochromes. Finally, multimeric analyses were performed by staining the cells with Live/dead near IR dye (Invitrogen, Karlsruhe, Germany), CD8-FITC antibody clone SK1 (BD, Heidelberg, Germany) and fluorescent pMHC multimers. For analysis, a BD LSRII SORP cytometer equipped with appropriate lasers and filters was used. Peptide specific cells were calculated as percentage of total CD8+ cells. Evaluation of multimeric analysis was done using the FlowJo software (Tree Star, Oregon, USA). In vitro priming of specific multimer+ CD8+ lymphocytes was detected by comparing to negative control stimulations. […]

| Substance | donors (percentage of positive donors) | wells (percentage of positive wells) |
| --- | --- | --- |
| 283 (ALYIGDGYVIHLA; listed as Homo sapiens) [compound 283] | +++ (50%-69% = +++) | + (<20% = +) |
| 648 (LLWGNAIFL; listed as Homo sapiens) [compound 648] | +++ (50%-69% = +++) | ++ (20%-49% = ++) |
| 652 (TLWYRAPEV; listed as Homo sapiens) [compound 652] | ++++ (> = 70% = ++++) | +++ (50%-69% = +++) |
| 659 (ILFPDIIARA; listed as Homo sapiens) [compound 659] | +++ (50%-69% = +++) | + (<20% = +) |
| 662 (KIQEILTQV; listed as Homo sapiens) [compound 662] | +++ (50%-69% = +++) | + (<20% = +) |
| 663 (KIQEMQHFL; listed as Homo sapiens) [compound 663] | +++ (50%-69% = +++) | + (<20% = +) |

Target: HLA-A*02:01 (Homo sapiens, UniProt P04439, D140Y/D185E/D98H/E176V/E277Q/G131W/G231S/I119V/I121R/I166T/I218V/L300P/L318F/N151K/N90K/P208A/P217A/Q86G/Q94H/R138H/R169H/T345S)
Assay: MHC binding assay: UV-ligand exchange with beta2m ELISA (peptide exchange yield)
Conditions: binding to HLA-A*02:01
In short: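 Peptide-MHC complexes formed by UV-ligand exchange, a UV-cleavable peptide being replaced by the candidate peptide. Exchange products diluted 100-fold, captured on streptavidin-coated plates for 1h at 37° C, then detected with 2 ug/ml HRP anti-β2m (1h, 37° C) and TMB, absorbance 450 nm; value is exchange yield.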

| Substance | Peptide exchange (MHC class I binding score, peptide exchange yield) |
| --- | --- |
| 283 (ALYIGDGYVIHLA; listed as Homo sapiens) [compound 283] | “+++” (≥50 = +++) |
| 611 (YLLDDGTLVV; listed as Homo sapiens) [compound 611] | “++++” (≥75% = ++++) |
| 612 (YLYNEGLSV; listed as Homo sapiens) [compound 612] | “+++” (≥50 = +++) |
| 613 (RLLPPGAVVAV; listed as Homo sapiens) [compound 613] | “+++” (≥50 = +++) |
| 614 (LLLPDQPPYHL; listed as Homo sapiens) [compound 614] | “+++” (≥50 = +++) |
| 615 (VLPPDTDPA; listed as Homo sapiens) [compound 615] | “++” (≥20% = ++) |
| 616 (VLIDEVESL; listed as Homo sapiens) [compound 616] | “+++” (≥50 = +++) |

The remaining lines, values ahead:

| Peptide exchange (MHC class I binding score, peptide exchange yield) | Substance |
| --- | --- |
| “+++” (≥50 = +++) | 617 (ALMYESEKVGV; listed as Homo sapiens) [compound 617] |
| “+++” (≥50 = +++) | 618 (VLFDSESIGIYV; listed as Homo sapiens) [compound 618] |
| “+++” (≥50 = +++) | 619 (ALQDRVPLA; listed as Homo sapiens) [compound 619] |
| “++++” (≥75% = ++++) | 620 (KLLNKIYEA; listed as Homo sapiens) [compound 620] |
| “++++” (≥75% = ++++) | 621 (VLMDRLPSLL; listed as Homo sapiens) [compound 621] |
| “+++” (≥50 = +++) | 622 (RLLGEEVVRVLQA; listed as Homo sapiens) [compound 622] |
| “+++” (≥50 = +++) | 623 (YLVEDIQHI; listed as Homo sapiens) [compound 623] |
| “+++” (≥50 = +++) | 635 (SLDSTLHAV; listed as Homo sapiens) [compound 635] |
